Data published in patent US12534531 (MacroGenics, dated 2026).
Changes are numbered by the printed parent chain. Each block holds one binder with its values, some of them ahead of it.

What was measured:
[1] = biological target: T1, human PD-1 expressed on the surface of cells (NSO cells expressing human PD-1; MNFAT-luc2/PD-1 Jurkat cells) (human, UniProt Q15116 21-288); experiment: FACS saturation binding to NSO cells expressing PD-1; SM; SD 0.4140
T1 construct: also called cell surface PD-1; PDCD1 transfected NSO cells expressing PD-1
T1 sequence (Q15116 21-288): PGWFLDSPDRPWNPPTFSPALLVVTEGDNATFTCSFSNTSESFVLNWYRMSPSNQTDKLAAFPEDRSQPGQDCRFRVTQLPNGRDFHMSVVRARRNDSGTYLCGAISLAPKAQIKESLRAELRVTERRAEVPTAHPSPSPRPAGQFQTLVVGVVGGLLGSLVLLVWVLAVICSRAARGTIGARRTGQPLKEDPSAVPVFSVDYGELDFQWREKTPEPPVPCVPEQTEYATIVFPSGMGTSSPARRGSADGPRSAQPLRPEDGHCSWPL

[2] = biological target: T2, human LAG-3 expressed on NSO cells (human, UniProt P18627 29-525); experiment: FACS saturation binding to NSO cells expressing LAG-3; SM; SD 0.5326
T2 sequence: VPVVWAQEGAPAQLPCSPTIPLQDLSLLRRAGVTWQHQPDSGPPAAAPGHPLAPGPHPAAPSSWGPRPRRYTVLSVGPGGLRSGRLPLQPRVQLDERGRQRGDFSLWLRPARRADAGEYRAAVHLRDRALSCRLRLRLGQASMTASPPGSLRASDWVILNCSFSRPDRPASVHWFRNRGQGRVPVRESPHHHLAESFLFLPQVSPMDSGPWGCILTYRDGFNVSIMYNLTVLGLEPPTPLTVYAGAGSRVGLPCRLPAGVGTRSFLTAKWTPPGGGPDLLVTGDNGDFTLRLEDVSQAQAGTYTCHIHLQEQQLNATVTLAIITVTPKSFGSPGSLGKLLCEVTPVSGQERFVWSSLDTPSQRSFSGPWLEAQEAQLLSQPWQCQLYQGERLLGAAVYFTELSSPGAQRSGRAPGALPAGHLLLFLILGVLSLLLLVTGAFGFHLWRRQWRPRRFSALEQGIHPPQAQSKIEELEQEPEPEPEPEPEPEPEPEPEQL

[3] = biological target: T1, human PD-1 expressed on the surface of …; experiment: FACS: inhibition of sPD-L1 binding to PD-1 on NSO cells; SM; SD 0.1692
[4] = biological target: T1, human PD-1 expressed on the surface of …; experiment: FACS: inhibition of sPD-L2 binding to PD-1 on NSO cells; SM; SD 0.5869
[5] = biological target: T3, biotinylated-soluble human LAG-3-Fc fusion protein (human, UniProt P18627 23-450, biotinylated (site not stated)); experiment: FACS: inhibition of shLAG-3-Fc binding to MHC II on Daudi cells (column head prints EC50); SM; SD 1.1398
T3 construct: whole entry named; also called shLAG-3; shLAG-3-Fc; not shown: Fc
T3 sequence: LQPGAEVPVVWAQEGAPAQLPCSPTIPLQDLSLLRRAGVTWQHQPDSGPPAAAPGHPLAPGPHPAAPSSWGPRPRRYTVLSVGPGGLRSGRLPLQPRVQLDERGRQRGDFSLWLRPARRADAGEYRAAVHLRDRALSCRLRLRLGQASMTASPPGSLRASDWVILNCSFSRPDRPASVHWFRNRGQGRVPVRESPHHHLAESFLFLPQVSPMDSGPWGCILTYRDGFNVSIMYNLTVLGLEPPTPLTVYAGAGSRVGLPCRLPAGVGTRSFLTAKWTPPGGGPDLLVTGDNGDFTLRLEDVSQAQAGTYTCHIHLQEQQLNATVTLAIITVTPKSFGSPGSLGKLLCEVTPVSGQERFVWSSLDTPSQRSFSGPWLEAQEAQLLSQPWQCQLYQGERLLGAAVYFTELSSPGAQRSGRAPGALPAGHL

[6] = biological target: T1, human PD-1 expressed on the surface of …; experiment: FACS saturation binding to NSO cells expressing PD-1; SM; SD 0.4324
[7] = biological target: T2, human LAG-3 expressed on NSO cells; experiment: FACS saturation binding to NSO cells expressing LAG-3; SM; SD 0.2231
[8] = biological target: T1, human PD-1 expressed on the surface of …; experiment: FACS: inhibition of sPD-L1 binding to PD-1 on NSO cells; SM; SD 0.1485
[9] = biological target: T1, human PD-1 expressed on the surface of …; experiment: FACS: inhibition of sPD-L2 binding to PD-1 on NSO cells; SM; SD 0.4285
[10] = biological target: T3, biotinylated-soluble human LAG-3-Fc …; experiment: FACS: inhibition of shLAG-3-Fc binding to MHC II on Daudi cells (column head prints EC50); SM; SD 1.6465
[11] = biological target: T1, human PD-1 expressed on the surface of …; experiment: FACS: inhibition of sPD-L1 binding to PD-1 on NSO cells; SM; SD 0.0007
[12] = biological target: T1, human PD-1 expressed on the surface of …; experiment: FACS: inhibition of sPD-L2 binding to PD-1 on NSO cells; SM; SD 0.3154
[13] = biological target: T1, human PD-1 expressed on the surface of …; experiment: FACS saturation binding to NSO cells expressing PD-1; single experiment
[14] = biological target: T2, human LAG-3 expressed on NSO cells; experiment: FACS saturation binding to NSO cells expressing LAG-3; single experiment
[15] = biological target: T3, biotinylated-soluble human LAG-3-Fc …; experiment: FACS: inhibition of shLAG-3-Fc binding to MHC II on Daudi cells (column head prints EC50); SM; SD 0.1104
[16] = biological target: T1, human PD-1 expressed on the surface of …; experiment: FACS saturation binding to NSO cells expressing PD-1; SM; SD 0.3958
[17] = biological target: T4, soluble human PD-1 (the extracellular domain of human PD-1 fused to a His tag) (human, UniProt Q15116 25-170); experiment: Biacore, mAb captured on F(ab)2 goat anti-human Fc, analyte shPD-1 His
T4 construct: also called shPD-1 His; shPD-1-His; not shown: His tag
T4 sequence (Q15116 25-170): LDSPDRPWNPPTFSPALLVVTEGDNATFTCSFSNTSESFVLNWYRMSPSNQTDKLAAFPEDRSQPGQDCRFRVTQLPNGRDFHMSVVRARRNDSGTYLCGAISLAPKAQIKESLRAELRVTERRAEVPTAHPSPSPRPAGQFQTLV

[18] = biological target: T1, human PD-1 expressed on the surface of …; experiment: FACS: inhibition of sPD-L1 binding to PD-1 on NSO cells; SM; SD 0.2337
[19] = biological target: T1, human PD-1 expressed on the surface of …; experiment: FACS: inhibition of sPD-L2 binding to PD-1 on NSO cells; SM; SD 0.2893
[20] = biological target: soluble cynomolgus monkey PD-1 (scyno PD-1 hFc) cleaved to remove Fc portion (cynomolgus monkey, UniProt B0LAJ3 25-170); experiment: Biacore, mAb captured on F(ab)2 goat anti-human Fc, analyte scyno PD-1 hFc cleaved of Fc
Chain of soluble cynomolgus monkey PD-1 (scyno PD-1 hFc) cleaved to remove Fc portion (B0LAJ3 entry or part of it limits assumed): as the sequence (Q15116 25-170) above, with D2E, P10A, V19L, T35A, Q75R, T144A counted along it

[21] = biological target: T1, human PD-1 expressed on the surface of …; experiment: FACS saturation binding on NSO cells expressing human PD-1, goat anti-human-APC, MFI, 1:4 dilutions
[22] = biological target: T1, human PD-1 expressed on the surface of …; experiment: FACS blocking on NSO cells expressing human PD-1, 1:4 dilutions, MFI; blocked ligand: biotinylated sPD-L1, streptavidin-PE
[23] = biological target: T1, human PD-1 expressed on the surface of …; experiment: FACS blocking on NSO cells expressing human PD-1, 1:4 dilutions, MFI; blocked ligand: biotinylated sPD-L2, streptavidin-PE

EC50 [1]: 2230 nM
EC50 [2]: 898 nM
IC50 [3]: 1550 nM
IC50 [4]: 3130 nM
IC50 [5]: 1180 nM
B1: DART D (bispecific antibody, human IgG4 S228P, kappa)
chain 1: EIVLTQSPATLSLSPGERATLSCRASESVDNYGMSFMNWFQQKPGQPPKLLIHAASNQGSGVPSRFSGSGSGTDFTLTISSLEPEDFAVYFCQQSKEVPYTFGGGTKVEIKGGGSGGGGQVQLVQSGAEVKKPGASVKVSCKASGYTFTNYGMNWVRQAPGQGLEWMGWINTYTGESTYADDFEGRFVFSMDTSASTAYLQISSLKAEDTAVYYCARESLYDYYSMDYWGQGTTVTVSSLGGGSGASTKGPSVFPLAPCSRSTSESTAALGCLVKDYFPEPVTVSWNSGALTSGVHTFPAVLQSSGLYSLSSVVTVPSSSLGTKTYTCNVDHKPSNTKVDKRVESKYGPPCPPCPAPEFLGGPSVFLFPPKPKDTLYITREPEVTCVVVDVSQEDPEVQFNWYVDGVEVHNAKTKPREEQFNSTYRVVSVLTVLHQDWLNGKEYKCKVSNKGLPSSIEKTISKAKGQPREPQVYTLPPSQEEMTKNQVSLTCLVKGFYPSDIAVEWESNGQPENNYKTTPPVLDSDGSFFLYSRLTVDKSRWQEGNVFSCSVMHEALHNHYTQKSLSLSLG
chain 2: DIVMTQTPLSLSVTPGQPASISCKSSQSLLHSDAKTYLNWLLQKPGQPPERLIYLVSELDSGVPDRFSGSGSGTDFTLKISRVEAEDVGVYYCWQGTHFPYTFGGGTKVEIKGGGSGGGGQVQLVQSGAEVKKPGASVKVSCKASGYSFTSYWMNWVRQAPGQGLEWIGVIHPSDSETWLDQKFKDRVTITVDKSTSTAYMELSSLRSEDTAVYYCAREHYGTSPFAYWGQGTLVTVSSLGGGSGRTVAAPSVFIFPPSDEQLKSGTASVVCLLNNFYPREAKVQWKVDNALQSGNSQESVTEQDSKDSTYSLSSTLTLSKADYEKHKVYACEVTHQGLSSPVTKSFNRGEC

EC50 [6]: 1930 nM
EC50 [7]: 840 nM
IC50 [8]: 964 nM
IC50 [9]: 1630 nM
IC50 [10]: 1380 nM
B2: DART A (bispecific antibody, human IgG4 S228P)
chain 1: DIVMTQTPLSLSVTPGQPASISCKSSQSLLHSDAKTYLNWLLQKPGQPPERLIYLVSELDSGVPDRFSGSGSGTDFTLKISRVEAEDVGVYYCWQGTHFPYTFGGGTKVEIKGGGSGGGGQVQLVQSGAEVKKPGASVKVSCKASGYSFTSYWMNWVRQAPGQGLEWIGVIHPSDSETWLDQKFKDRVTITVDKSTSTAYMELSSLRSEDTAVYYCAREHYGTSPFAYWGQGTLVTVSSGGCGGGEVAACEKEVAALEKEVAALEKEVAALEKESKYGPPCPPCPAPEFLGGPSVFLFPPKPKDTLYITREPEVTCVVVDVSQEDPEVQFNWYVDGVEVHNAKTKPREEQFNSTYRVVSVLTVLHQDWLNGKEYKCKVSNKGLPSSIEKTISKAKGQPREPQVYTLPPSQEEMTKNQVSLTCLVKGFYPSDIAVEWESNGQPENNYKTTPPVLDSDGSFFLYSRLTVDKSRWQEGNVFSCSVMHEALHNHYTQKSLSLSLG
chain 2: EIVLTQSPATLSLSPGERATLSCRASESVDNYGMSFMNWFQQKPGQPPKLLIHAASNQGSGVPSRFSGSGSGTDFTLTISSLEPEDFAVYFCQQSKEVPYTFGGGTKVEIKGGGSGGGGQVQLVQSGAEVKKPGASVKVSCKASGYTFTNYGMNWVRQAPGQGLEWMGWINTYTGESTYADDFEGRFVFSMDTSASTAYLQISSLKAEDTAVYYCARESLYDYYSMDYWGQGTTVTVSSGGCGGGKVAACKEKVAALKEKVAALKEKVAALKE

IC50 [11]: 1150 nM
IC50 [12]: 2120 nM
EC50 [13]: 1760 nM
EC90 [13]: 12300 nM
EC50 [14]: 1080 nM
IC50 [15]: 408 nM
B3: DART B (bispecific antibody, human IgG4 S228P)
chain 1: B2 chain 1 with A34G
chain 2: B2 chain 2

EC50 [16]: 1090 nM
Kd [17]: 1.5 nM
IC50 [18]: 732 nM
IC50 [19]: 977 nM
Kd [20]: 4.9 nM
EC50 (read off the curve) [21]: ~0.08 µg/mL
IC50 (read off the curve) [22]: ~0.01 ug/test
IC50 (read off the curve) [23]: ~0.02 ug/test
B4: hPD-1 mAb 7 (1.2) IgG1 (AA) (antibody)
heavy: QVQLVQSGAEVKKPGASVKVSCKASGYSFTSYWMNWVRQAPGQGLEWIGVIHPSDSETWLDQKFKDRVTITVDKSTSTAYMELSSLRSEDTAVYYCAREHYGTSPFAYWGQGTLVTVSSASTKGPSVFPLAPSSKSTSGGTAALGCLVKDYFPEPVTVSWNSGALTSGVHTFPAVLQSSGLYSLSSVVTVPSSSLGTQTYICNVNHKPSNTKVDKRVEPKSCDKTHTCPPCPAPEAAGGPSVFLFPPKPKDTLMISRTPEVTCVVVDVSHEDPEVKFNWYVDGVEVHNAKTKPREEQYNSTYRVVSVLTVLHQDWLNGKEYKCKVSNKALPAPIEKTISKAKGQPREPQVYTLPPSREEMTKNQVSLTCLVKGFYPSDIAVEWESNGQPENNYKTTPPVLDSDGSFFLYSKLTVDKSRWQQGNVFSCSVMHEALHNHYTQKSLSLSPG
light: EIVLTQSPATLSLSPGERATLSCRASESVDNYGMSFMNWFQQKPGQPPKLLIHAASNQGSGVPSRFSGSGSGTDFTLTISSLEPEDFAVYFCQQSKEVPYTFGGGTKVEIKRTVAAPSVFIFPPSDEQLKSGTASVVCLLNNFYPREAKVQWKVDNALQSGNSQESVTEQDSKDSTYSLSSTLTLSKADYEKHKVYACEVTHQGLSSPVTKSFNRGEC
notes: also called h1PD-1 mAb 7(1.2) IgG1 (AA)
